Measurements: patent publication US20230094162A1 (MacroGenics, published 2023)
Read-outs that look alike come from different tables or passages of the source.

How the values were obtained:
[1] = molecular target: T1, PD-L1 expressed on the cell surface (CHO/PD-L1 cells) (UniProt Q9NZQ7 19-290); assay: cell-based or functional assay
[2] = molecular target: T1, PD-L1 expressed on the cell surface …; assay: cell-based or functional assay; remark: listed apart in the source
[3] = molecular target: T2, CD137 expressed on the cell surface (CHO/CD137 cells) (UniProt Q07011 24-255, limits assumed); assay: flow cytometry (FACS) on CHO cells expressing CD137, MFI
T2 construct: whole, on cells; also called cell surface CD137; Jurkat-NF-κB-Luc reporter cells overexpressing CD137
T2 sequence (Q07011 24-255 limits assumed): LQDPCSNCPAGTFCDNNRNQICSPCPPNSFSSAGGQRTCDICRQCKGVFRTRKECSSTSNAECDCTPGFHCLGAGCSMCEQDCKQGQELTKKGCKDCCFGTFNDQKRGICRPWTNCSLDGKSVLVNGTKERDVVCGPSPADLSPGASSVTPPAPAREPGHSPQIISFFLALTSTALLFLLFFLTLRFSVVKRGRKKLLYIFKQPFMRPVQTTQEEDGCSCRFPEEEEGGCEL
Procedure: FACS analysis to evaluate the test articles for binding to cell surface CD137 was performed essentially as follows: 100 μL of CHO cells expressing CD137 (CHO/CD137) (1.0×10⁵ to 1×10⁶ cells/well) and 100 μL of serially diluted test article or control was added to each well of microtiter assay plate(s), mixed and incubated at RT for about 30 min. The cells were washed with FACS Buffer and secondary antibody (goat anti-human-APC, PE, or FITC) was then added to each well (1:1000), after which, the components were mixed and the wells were incubated at RT for about 30 min. Cells were washed and resuspended in 250 μL FACS Buffer and analyzed by flow cytometry (BD LSR Fortessa or FACSCanto II) for cell events collection. Data analysis were performed via FloJo v10.

[4] = molecular target: T3, soluble PD-L1 fused to a His tag (shPD-L1) (UniProt Q9NZQ7 19-238, limits assumed); assay: ELISA on plate-coated shPD-L1-his, anti-human kappa-HRP detection, RLU
T3 construct: the species of shPD-L1 is not written out; also called shPD-L1-his; not shown: His tag
T3 sequence (Q9NZQ7 19-238 limits assumed): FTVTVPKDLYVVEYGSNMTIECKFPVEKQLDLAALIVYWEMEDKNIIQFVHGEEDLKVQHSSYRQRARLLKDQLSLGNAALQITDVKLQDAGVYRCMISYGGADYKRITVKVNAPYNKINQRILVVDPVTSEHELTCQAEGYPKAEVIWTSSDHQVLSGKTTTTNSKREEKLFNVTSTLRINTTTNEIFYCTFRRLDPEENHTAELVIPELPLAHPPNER
Procedure: ELISA assays to evaluate the test articles for CD137 binding were performed essentially as follows: flat bottom maxisorb 96-well plates were coated with soluble human or cynomolgus monkey CD137 (the extracellular domain of human or cynomolgus monkey CD137 fused to a His tag (shCD137 His or scyCD137 His) or to a human Fc Region (shCD137 hFc or scyCD137 hFc)), each at 0.5 or 1 μg/mL. The plates were washed, blocked with PBS buffer containing 0.5% bovine serum albumin and 0.1% Tween20, and incubated with a test article (e.g., cell supernatants or purified mAb). For the hybridoma supernatants anti-CD137 antibody was utilized at 1.0 μg/mL and six three-fold serial dilutions. The amount of test article binding to the immobilized CD137 (human or cynomolgus monkey) was assessed using a goat anti-mouse IgG-HRP secondary antibody. All samples were analyzed on a plate reader (Victor 2 Wallac, Perkin Elmer) and EC50 values were calculated from dose-response curves by nonlinear regression analysis.
The binding of Fab fragments comprising different combinations of these substitutions to shPD-L1-his was evaluated by ELISA essentially as described above except a goat anti-human kappa-HRP secondary antibody was used.

T1 sequence (Q9NZQ7 19-290): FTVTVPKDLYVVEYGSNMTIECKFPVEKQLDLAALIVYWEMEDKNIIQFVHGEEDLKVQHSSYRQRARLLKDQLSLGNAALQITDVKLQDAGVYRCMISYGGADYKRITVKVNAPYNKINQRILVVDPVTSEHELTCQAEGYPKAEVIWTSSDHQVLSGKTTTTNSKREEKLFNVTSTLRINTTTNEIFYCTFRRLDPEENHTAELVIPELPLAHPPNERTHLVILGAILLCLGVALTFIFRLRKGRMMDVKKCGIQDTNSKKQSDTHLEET

B1: DART-A7 (bispecific antibody)
chain 1: DIQMTQSPSSLSASVGDRVTITCKASQDVNEAVAWYQQKPGKAPKLLIYWASTRHTGVPSRFSGSGSGTDFTLTISSLQPEDFATYYCQQHYNTPLTFGQGTKVEIKGGGSGGGGQVQLQESGPGLVKPSETLSLTCTVSGGSISSYYWSWIRQPPGKGLEWIGRIYTSGSTNYNPSLKSRVTMSVDTSKNQFSLKLSSVTAADTAVYYCARDGWYDEDYNYYGMDVWGQGTTVTVSSGGCGGGEVAACEKEVAALEKEVAALEKEVAALEKLEPKSADKTHTCPPCPAPEAAGGPSVFLFPPKPKDTLYITREPEVTCVVVDVSHEDPEVKFNWYVDGVEVHNAKTKPREEQYNSTYRVVSVLTVLHQDWLNGKEYKCKVSNKALPAPIEKTISKAKGQPREPQVYTLPPSREEMTKNQVSLTCLVKGFYPSDIAVEWESNGQPENNYKTTPPVLDSDGSFFLYSKLTVDKSRWQQGNVFSCSVMHEALHNHYTQKSLSLSPGK
chain 2: EIVMTQSPATLSLTPGERATLSCRASQSVSSNYLSWFQQIPGQAPRLLIYGASTRATGIPARFSGSGSGTDFTLTISSLQPEDFAVYYCQQDYDLPWTFGQGTKVEIKGGGSGGGGEVQLVESGGGLVQPGGSLRLSCAASGFTFSSYTMSWVRQAPGKGLEWVAYISIGGGTTYYPDTVKGRFTISRDNAKNSLYLQMNSLRAEDTAVYYCARAGLPYYFDYWGQGTLVTVSSGGCGGGKVAACKEKVAALKEKVAALKEKVAALKE
notes: Tetravalent; CD137 MAB-6(1.1) and hPD-L1 MAB-2(4.2)
B1 was tested, and the “EC50 (read off the curve)” value [1] was ~0.1 µg/mL, the “EC50 (read off the curve)” value [2] was ~0.2 µg/mL and the “EC50 (read off the curve)” value [3] was ~0.05 µg/mL.

B2: DART-A10 (bispecific antibody)
chain 1: DIQMTQSPSSLSASVGDRVTITCKASQDVNEAVAWYQQKPGKAPKLLIYWASTRHTGVPSRFSGSGSGTDFTLTISSLQPEDFATYYCQQHYNTPLTFGQGTKVEIKGGGSGGGGQVQLQESGPGLVKPSETLSLTCTVSGGSISSYYWSWIRQPPGKGLEWIGRIYTSGSTNYNPSLKSRVTMSVDTSKNQFSLKLSSVTAADTAVYYCARDGWYDEDYNYYGMDVWGQGTTVTVSSGGCGGGEVAACEKEVAALEKEVAALEKEVAALEKLEPKSADKTHTCPPCPAPEAAGGPSVFLFPPKPKDTLYITREPEVTCVVVDVSHEDPEVKFNWYVDGVEVHNAKTKPREEQYNSTYRVVSVLTVLHQDWLNGKEYKCKVSNKALPAPIEKTISKAKGQPREPQVYTLPPSREEMTKNQVSLTCLVKGFYPSDIAVEWESNGQPENNYKTTPPVLDSDGSFFLYSKLTVDKSRWQQGNVFSCSVMHEALHNHYTQKSLSLSPGK
chain 2: EIVMTQSPATLSLSPGERATLSCRASQSVSSNYLSWFQQKPGQAPRLLIYGASTRATGIPARFSGSGSGTDFTLTISSLQPEDFAVYYCQQDYDLPWTFGQGTKVEIKGGGSGGGGEVQLVESGGGLVQPGGSLRLSCAASGFTFSSYTMSWVRQAPGKGLEWVAYISIGGGTTYYPDTVKGRFTISRDNAKNSLYLQMNSLRAEDTAVYYCARAGLPYYFDYWGQGTLVTVSSGGCGGGKVAACKEKVAALKEKVAALKEKVAALKE
notes: Tetravalent; CD137 MAB-6(1.3) and hPD-L1 MAB-2(4.2)
With B2 the “EC50 (read off the curve)” value [2] was ~0.2 µg/mL and the “EC50 (read off the curve)” value [3] was ~0.05 µg/mL.

B3: hPD-L1 MAB-2A (Fab) (Fab, V domains shown)
VH: EVQLVESGGGLVQPGGSLRLSCAASGFTFSGYTMSWVRQAPGKGLEWVAYISIKGGTTYYPDTVKGRFTISRDNAKNTLYLQMNSLKTEDTAVYYCARAGLPYYFDYWGQGTLVTVSS
VL: DIQMTQSPSSLSASVGDRVTITCKASQHVNTAVAWYQQKPGKAPKLLIYWASTRHTGVPSRFSGSGSGTDFTLTISSLQPEDFATYYCQQHYNTPLTFGQGTKVEIK
notes: Fab fragment
B3: binds [4].

B4: hPD-L1 MAB-2B (Fab) (Fab, V domains shown)
VH: EVQLVESGGGLVQPGGSLRLSCAASGFTFSGYTMSWVRQAPGKGLEWVAYISIKGGTTYYPDTVKGRFTISRDNAKNTLYLQMNSLKTEDTAVYYCARGGLPYYFDYWGQGTLVTVSS
VL: DIQMTQSPSSLSASVGDRVTITCKASQVVNTAVAWYQQKPGKAPKLLIYWASTRHTGVPSRFSGSGSGTDFTLTISSLQPEDFATYYCQQHYNTPLTFGQGTKVEIK
notes: Fab fragment
B4: binds [4].

B5: hPD-L1 MAB-2C (Fab) (Fab, V domains shown)
VH: EVQLVESGGGLVQPGGSLRLSCAASGFTFSGYTMSWVRQAPGKGLEWVAYISIKGGTTYYPDTVKGRFTISRDNAKNTLYLQMNSLKTEDTAVYYCARQGLPYYGDYWGQGTLVTVSS
VL: DIQMTQSPSSLSASVGDRVTITCKASQLVNTAVAWYQQKPGKAPKLLIYWASTRHTGVPSRFSGSGSGTDFTLTISSLQPEDFATYYCQQHYNTPLTFGQGTKVEIK
notes: Fab fragment
B5: binds [4].

B6: hPD-L1 MAB-2D (Fab) (Fab, V domains shown)
VH: EVQLVESGGGLVQPGGSLRLSCAASGFTFSSYTMSWVRQAPGKGLEWVAYISIGGGTTYYPDTVKGRFTISRDNAKNTLYLQMNSLKTEDTAVYYCARQGLPYYGDYWGQGTLVTVSS
VL: DIQMTQSPSSLSASVGDRVTITCKASQLVNTAVAWYQQKPGKAPKLLIYWAETRHTGVPSRFSGSGSGTDFTLTISSLQPEDFATYYCQQHYNTPLTFGQGTKVEIK
notes: Fab fragment
B6: binds [4].

B7: hPD-L1 MAB-2E (Fab) (Fab, V domains shown)
VH: EVQLVESGGGLVQPGGSLRLSCAASGFTFSSYTMSWVRQAPGKGLEWVAYISIKGGTTYYPDTVKGRFTISRDNAKNTLYLQMNSLKTEDTAVYYCARAGLPYYFDYWGQGTLVTVSS
VL: DIQMTQSPSSLSASVGDRVTITCKASQLVNTAVAWYQQKPGKAPKLLIYWASTRHTGVPSRFSGSGSGTDFTLTISSLQPEDFATYYCQQHYNTPLTFGQGTKVEIK
notes: Fab fragment
B7: binds [4].

B8: DART-A8 (bispecific antibody)
chain 1: DIQMTQSPSSLSASVGDRVTITCKASQDVNEAVAWYQQKPGKAPKLLIYWASTRHTGVPSRFSGSGSGTDFTLTISSLQPEDFATYYCQQHYNTPLTFGQGTKVEIKGGGSGGGGQVQLQESGPGLVKPSETLSLTCTVSGGSISSYYWSWIRQPPGKGLEWIGRIYTSGSTNYNPSLKSRVTMSVDTSKNQFSLKLSSVTAADTAVYYCARDGWYDEDYNYYGMDVWGQGTTVTVSSGGCGGGEVAACEKEVAALEKEVAALEKEVAALEKLEPKSADKTHTCPPCPAPEAAGGPSVFLFPPKPKDTLYITREPEVTCVVVDVSHEDPEVKFNWYVDGVEVHNAKTKPREEQYNSTYRVVSVLTVLHQDWLNGKEYKCKVSNKALPAPIEKTISKAKGQPREPQVYTLPPSREEMTKNQVSLTCLVKGFYPSDIAVEWESNGQPENNYKTTPPVLDSDGSFFLYSKLTVDKSRWQQGNVFSCSVMHEALHNHYTQKSLSLSPGK
chain 2: EIVMTQSPATLSLTPGERATLSCRASQSVSSNYLSWFQQIPGQAPRLLIYGASTRATGIPARFSGSGSGTDFTLTISSLQPEDFAVYYCQQDYDLPWTFGQGTKVEIKGGGSGGGGEVQLVESGGGLVQPGGSLRLSCAASGFTFSSYTMSWVRQAPGKGLEWVAYISIKGGTTYYPDTVKGRFTISRDNAKNSLYLQMNSLRAEDTAVYYCARAGLPYYFDYWGQGTLVTVSSGGCGGGKVAACKEKVAALKEKVAALKEKVAALKE
In the case of B8, the “EC50 (read off the curve)” value [1] is reported as ~0.1 µg/mL.

B9: DART-A9 (bispecific antibody)
chain 1: DIQMTQSPSSLSASVGDRVTITCKASQDVNEAVAWYQQKPGKAPKLLIYWASTRHTGVPSRFSGSGSGTDFTLTISSLQPEDFATYYCQQHYNTPLTFGQGTKVEIKGGGSGGGGQVQLQESGPGLVKPSETLSLTCTVSGGSISSYYWSWIRQPPGKGLEWIGRIYTSGSTNYNPSLKSRVTMSVDTSKNQFSLKLSSVTAADTAVYYCARDGWYDEDYNYYGMDVWGQGTTVTVSSGGCGGGEVAACEKEVAALEKEVAALEKEVAALEKLEPKSADKTHTCPPCPAPEAAGGPSVFLFPPKPKDTLYITREPEVTCVVVDVSHEDPEVKFNWYVDGVEVHNAKTKPREEQYNSTYRVVSVLTVLHQDWLNGKEYKCKVSNKALPAPIEKTISKAKGQPREPQVYTLPPSREEMTKNQVSLTCLVKGFYPSDIAVEWESNGQPENNYKTTPPVLDSDGSFFLYSKLTVDKSRWQQGNVFSCSVMHEALHNHYTQKSLSLSPGK
chain 2: EIVMTQSPATLSLTPGERATLSCRASQSVSSNYLSWFQQIPGQAPRLLIYGASTRATGIPARFSGSGSGTDFTLTISSLQPEDFAVYYCQQDYDLPWTFGQGTKVEIKGGGSGGGGEVQLVESGGGLVQPGGSLRLSCAASGFTFSSYTMSWVRQAPGKGLEWVAYISIGGGTTYYPDTVKGRFTISRDNAKNSLYLQMNSLRAEDTAVYYCARAGLPYYGDYWGQGTLVTVSSGGCGGGKVAACKEKVAALKEKVAALKEKVAALKE
With B9 the “EC50 (read off the curve)” value [1] was ~0.1 µg/mL.
